Experimental data as given in US20210188990A1 (published 2021).
Where a chain is given by its changes, count along the chain named. Each block holds one binder with its values, some of them ahead of it.

Target: LTBR (form used for the KD values not stated) (human, UniProt P36941 31-227, limits assumed)
Assay: method and format not stated

Chain of LTBR (form used for the KD values not stated) (P36941 31-227 limits assumed): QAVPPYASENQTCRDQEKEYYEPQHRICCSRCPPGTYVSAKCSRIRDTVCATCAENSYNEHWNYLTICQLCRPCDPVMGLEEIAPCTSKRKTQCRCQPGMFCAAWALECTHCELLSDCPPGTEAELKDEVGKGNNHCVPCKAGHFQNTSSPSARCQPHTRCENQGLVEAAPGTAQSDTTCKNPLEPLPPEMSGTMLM

- Kd: ~60 nM
B1: SEQ ID NO 53: stapled scFv (VL3 Y36F_S49Y_F87Y) BHA10 (VH-VL), lower affinity variant (scFv)
scFv: QVQLVQSGAEVKKPGSSVKVSCKASGYTFTTYYLHWVRQAPGCGLEWMGWIYPGNVHAQYNEKFKGRVTITADKSTSTAYMELSSLRSEDTAVYYCARSWEGFPYWGQGTTVTVSSGGGSGGGSGCPPCGGGGDIQMTQSPSSLSASVGDRVTITCKASQNVGINVAWFQQKPGKAPKSLIYSASYRYSGVPSRFSGSGSGTDFTLTISSLQPEDFATYYCQQYDTYPFTFGCGTKVEIK
notes: scFv used in COVA14107

- Kd: ~600 nM
B2: SEQ ID NO 54: stapled scFv (VH_CDR1_Y33A) BHA10 (VH-VL), lower affinity variant (scFv)
scFv: B1 scFv with Y33A, F169Y, Y182S, Y220F
notes: scFv used in COVA14108
